Measured values from PMC5414174, “DNA replication licensing factor Cdc6 and Plk4 kinase antagonistically regulate centrosome duplication via Sas-6” (Nature Communications, 2017).

Molecular target: T1, GST-tagged Plk4 (human, UniProt O00444 1-970)
T1 construct: human Plk4, cloned from a cDNA library by PCR into pGEX 4T-1; also called GST-Plk4; source: E. coli BL21, purified (glutathione Sepharose 4B); not shown: GST, N-terminal, kept
T1 sequence (looked up): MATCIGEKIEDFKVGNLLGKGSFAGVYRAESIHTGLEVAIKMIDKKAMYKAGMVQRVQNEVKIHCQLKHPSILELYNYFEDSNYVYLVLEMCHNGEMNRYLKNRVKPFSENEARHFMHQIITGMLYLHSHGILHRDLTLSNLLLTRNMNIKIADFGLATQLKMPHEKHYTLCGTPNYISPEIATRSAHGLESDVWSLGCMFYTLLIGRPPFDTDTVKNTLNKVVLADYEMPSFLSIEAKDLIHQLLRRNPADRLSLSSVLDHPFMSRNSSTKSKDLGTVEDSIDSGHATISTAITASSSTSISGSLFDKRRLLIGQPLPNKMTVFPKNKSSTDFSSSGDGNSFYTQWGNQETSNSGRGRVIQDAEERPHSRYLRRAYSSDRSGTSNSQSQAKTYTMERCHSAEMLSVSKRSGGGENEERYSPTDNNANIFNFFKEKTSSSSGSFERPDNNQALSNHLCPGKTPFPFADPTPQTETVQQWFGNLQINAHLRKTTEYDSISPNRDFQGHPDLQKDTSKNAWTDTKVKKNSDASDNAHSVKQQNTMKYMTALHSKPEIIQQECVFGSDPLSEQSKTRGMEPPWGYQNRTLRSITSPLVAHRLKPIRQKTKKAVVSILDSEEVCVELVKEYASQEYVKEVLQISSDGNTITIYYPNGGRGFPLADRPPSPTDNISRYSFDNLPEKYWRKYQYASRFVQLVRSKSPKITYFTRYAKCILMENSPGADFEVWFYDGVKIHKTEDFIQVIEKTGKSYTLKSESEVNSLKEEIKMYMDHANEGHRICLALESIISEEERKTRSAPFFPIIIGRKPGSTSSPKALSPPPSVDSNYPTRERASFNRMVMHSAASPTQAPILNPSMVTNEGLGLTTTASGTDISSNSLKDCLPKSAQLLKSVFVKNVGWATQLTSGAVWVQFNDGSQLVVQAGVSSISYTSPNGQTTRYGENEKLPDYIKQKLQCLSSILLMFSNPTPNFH
Assay: pull-down; Sepharose beads coupled with purified GST-Plk4 incubated with purified His-Cdc6; western blot with His antibody
Details: both partners purified

B1: His-tagged Cdc6 (purified) (natural protein, human, UniProt Q99741 1-560, looked up)
chain: MPQTRSQAQATISFPKRKLSRALNKAKNSSDAKLEPTNVQTVTCSPRVKALPLSPRKRLGDDNLCNTPHLPPCSPPKQGKKENGPPHSHTLKGRRLVFDNQLTIKSPSKRELAKVHQNKILSSVRKSQEITTNSEQRCPLKKESACVRLFKQEGTCYQQAKLVLNTAVPDRLPAREREMDVIRNFLREHICGKKAGSLYLSGAPGTGKTACLSRILQDLKKELKGFKTIMLNCMSLRTAQAVFPAIAQEICQEEVSRPAGKDMMRKLEKHMTAEKGPMIVLVLDEMDQLDSKGQDVLYTLFEWPWLSNSHLVLIGIANTLDLTDRILPRLQAREKCKPQLLNFPPYTRNQIVTILQDRLNQVSRDQVLDNAAVQFCARKVSAVSGDVRKALDVCRRAIEIVESDVKSQTILKPLSECKSPSEPLIPKRVGLIHISQVISEVDGNRMTLSQEGAQDSFPLQQKILVCSLMLLIRQLKIKEVTLGKLYEAYSKVCRKQQVAAVDQSECLSLSGLLEARGILGLKRNKETRLTKVFFKIEEKEIEHALKDKALIGNILATGLP
notes: human Cdc6; also called His-Cdc6; source: E. coli BL21, purified (His60 Ni Superflow resin)
  binding result: binds
